These results are taken from patent US20170002075A1 (AbbVie / Abbott, published 2017).

The term IC50 denotes the midpoint of a concentration-inhibition curve. The term Kd denotes the concentration at which binding is half-saturated. The koff is the first-order rate constant of dissociation. A lower koff goes with slow dissociation. What is called kon is the rate constant with which the complex forms. A low value points to slow association. Broadly, the EC50 is the concentration needed to bring the measured effect to its halfway point.

Test [1] deals with T1, hRAGE (1-331) / human sRAGE 1-331, V#400 (human, UniProt Q15109 23-331).
T1 construct: also called sRAGE [RAGE (1-331)]; RAGE (antigen of the Biacore runs)
Briefly: competition ELISA on coated hRAGE (1-331); competitor biotinylated m11E6 at 0.3 µg/ml. The procedure: ELISA plates (Costar 3369) were coated overnight at 4° C. with 50 μl/well of 2 μg/ml hRAGE (1-331) in 0.2 M sodium carbonate-bicarbonate buffer, pH 9.4, washed with Wash Buffer (PBS containing 0.1% Tween 20), and blocked for 1 hr at room temperature with 200 pd/well of 2% nonfat dry milk in PBS. […] After incubating the plates for 1 hr at room temperature, and washing with Wash Buffer, bound antibodies were detected using 100 μl/well of 1:10,000 dilution of HRP-conjugated streptavidin (Fitzgerald) in ELISA buffer. After incubating for 1 hr at room temperature, and washing with Wash Buffer, color development was performed by adding 100 μl/well of TMB Buffer (Zymed). After incubating for 15 min at room temperature, color development was stopped by adding 50 μl/well of IN hydrochloric acid. Absorbance was read at 490 nm.
For orientation: ELISA stands for enzyme-linked immunosorbent assay.

Test [2] has as its target T1, hRAGE (1-331) / human sRAGE 1-331, V#400. Briefly: Biacore SPR, mAb captured via anti-human Fc, sRAGE (1-331) injected 30-0.12 nM, PBS-P buffer, 1:1 fit. The source says: Biacore 2000 and Biacore T100 instruments were used to measure anti-RAGE mAb binding kinetics. The assay format for mAb affinity analysis was Fc-based capture via immobilized anti-Fc antibodies. A standard amine coupling protocol was employed to immobilize Fc-specific IgG via primary amines to the carboxy-methyl (CM) dextran surface of CM5 sensorchips (Biacore). For the study of mouse anti-RAGE mAbs, anti-mouse Fc (Biacore, anti-mouse, BR-1005-14) was used as the immobilized capture reagent and for the study of humanized anti-RAGE mAbs, anti-human Fc (Pierce 31125) was used as the immobilized capture reagent. An automated protocol, available on the Biacore 2000 and Biacore T100, was used to immobilize 8000-10000 RU of capture reagent in all 4 flowcells of the sensorchip. Briefly, the CM-dextran surfaces were activated by freshly prepared 1:1 50 mM N-hydroxysuccinimide (NHS):200 mM 3-(N,N-dimethylamino) propyl-N-ethylcarbodiimide (EDC). Then the anti-Fc IgG capture reagent (20 ug/ml in 10 mM sodium acetate, pH4.5) was applied to the surface followed by deactivation of the surface and blocking of the residual reactive sites with 1M ethanolamine (pH 8.5).
The running buffer employed was PBS-P [1×PBS (Sigma P3813), pH 7.4, 0.005% P20 surfactant (Biacore)] for the humanized antibodies. Each experimental cycle consisted of the following steps: 1) anti-RAGE mAbs were captured in flowcells 2, 3 or 4 to a level of 50-200 RU (depending on the antigen). All measurements were referenced against flowcell 1 which had no captured anti-RAGE mAb. 2) Antigen was injected through all 4 flowcells, 240 ul at 80 ul/min. After the antigen injection, dissociation was monitored for 600 seconds at 80 ul/min. 3) the anti-Fc capture surface was regenerated with low pH glycine. For kinetic determinations, antigen injections were a 3 fold dilution series from either 30 nM-0.12 nM (for sRAGE [RAGE (1-331)] and buffer only in randomized duplicates.
Data were processed using either Biacore evaluation software or Scrubber 2.0 software (BioLogic Software). Briefly, the data were double referenced by first, subtracting the signal from the reference cell and second, by subtracting the signal from buffer-only injections.

Test [3] deals with T2, recombinant human RAGE (plate coat of the competition ELISA of Example 1.4).
T2 construct: not shown: The carrier of the coated preparation, if it had one
Description: competition ELISA on plates coated with recombinant human RAGE (2 µg/mL); competitor: biotinylated hybridoma-derived 7F9 (7F9-biotin), streptavidin-HRP, OD 450 nm; the unit comes from the axis 'Log MAbs (M)'. The procedure:
The purified chimeric anti-human RAGE monoclonal antibodies were tested for their ability to bind human RAGE in a competition ELISA. […] Equal volumes (50 μL) of each recombinant chimeric anti-human RAGE monoclonal antibodies or hybridoma-derived anti-human RAGE monoclonal antibodies and each corresponding biotinylated hybridoma-derived anti-RAGE mAbs were mixed. 50 μL of this mixture was then added to ELISA plates pre-coated with recombinant human RAGE at 2 μg/mL and incubated for 1.5 hours at room temperature. Wells were washed three times with PBS+0.05% Tween-20. Streptavidin HRP (1 mg/mL) was diluted 1:16000 in PBST+10% Superblock; 50 µL/well was added and the plates incubated for 1 hour at room temperature. Plates were washed 3 times with PBS+0.05% Tween-20. 50 µL of TMB solution (Sigma, St Louis, Mo.) was added to each well and incubated for 10 minutes at room temperature. The reaction was stopped by addition of IN sulphuric acid. Plates were read spectrophotometrically at a wavelength of 450 nm.

T1 sequence (Q15109 23-331): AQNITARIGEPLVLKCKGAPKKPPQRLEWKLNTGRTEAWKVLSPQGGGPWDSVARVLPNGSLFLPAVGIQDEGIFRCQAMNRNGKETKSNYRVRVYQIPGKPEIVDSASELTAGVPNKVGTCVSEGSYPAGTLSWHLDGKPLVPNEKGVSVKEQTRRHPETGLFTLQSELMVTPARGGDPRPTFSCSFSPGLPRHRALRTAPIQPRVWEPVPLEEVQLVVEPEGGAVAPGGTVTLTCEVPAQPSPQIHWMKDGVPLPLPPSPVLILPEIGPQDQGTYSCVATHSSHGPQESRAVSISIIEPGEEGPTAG
T2 sequence (chain, as listed by the source limits assumed): as the sequence (Q15109 23-331) above

B1: humanized anti-RAGE antibody h11E6.1 (antibody, V domains shown)
VH: EVQLVQSGSELKKPGASVKVSCKASGYTFTNFGMNWVRQAPGQGLEWMGYINTNTGESIYSEEFKGRFVFSLDTSVSTAYLQICSLKAEDTAVYYCARSRMVTAYGMDYWGQGTTVTVSS
VL: DIQMTQSPSSLSASVGDRVTITCKASQNVGTAVAWYQQKPGKAPKLLIYSASNRYTGVPSRFSGSGSGTDFTLTISSLQPEDFATYYCQQYSSYPLTFGQGTKLEIKR
notes: Full-length humanized antibody transiently produced in 293-6E cells
In turn, B1 gave an IC50 in test [1] of 19.7 nM.

B2: humanized anti-RAGE antibody h11E6.13 (antibody, V domains shown)
VH: EIQLVQSGAEVKKPGASVKVSCKASGYTFTNFGMNWVRQAPGQGLEWMGYINTNTGESIYSEEFKGRFTFTLDTSTSTAYMELSSLRSEDTAVYFCARSRMVTAYGMDYWGQGTSVTVSS
VL: DIQMTQSPSSLSASVGDRVTITCKASQNVGTAVAWYQQKPGKAPKLLIYSASNRYTGVPSRFSGSGSGTDFTLTISSLQPEDFATYYCQQYSSYPLTFGQGTKLEIKR
notes: as for B1
B2 came in with an IC50 in test [1] of 16.8 nM.

B3: humanized anti-RAGE antibody h11E6.9 (antibody, V domains shown)
VH: EVQLVQSGAEVKKPGASVKVSCKASGYTFTNFGMNWVRQAPGQGLEWMGYINTNTGESIYSEEFKGRVTMTRDTSTSTAYMELSSLRSEDTAVYYCARSRMVTAYGMDYWGQGTSVTVSS
VL: DIQMTQSPSSLSASVGDRVTITCKASQNVGTAVAWYQQKPGKAPKLLIYSASNRYTGVPSRFSGSGSGTDFTLTISSLQPEDFATYYCQQYSSYPLTFGQGTKLEIKR
notes: as for B1
As for B3, in test [1], the IC50 stood at 17.9 nM.

B4: humanized anti-RAGE antibody h11E6.3 (antibody, V domains shown)
VH: EVQLVQSGSELKKPGASVKVSCKASGYTFTNFGMNWVRQAPGQGLEWMGYINTNTGESIYSEEFKGRFVFSLDTSVSTAYLQICSLKAEDTAVYYCARSRMVTAYGMDYWGQGTTVTVSS
VL: EIVMTQSPATLSLSPGERATLSCKASQNVGTAVAWYQQKPGQAPRLLIYSASNRYTGIPARFSGSGSGTDFTLTISSLQSEDFAVYYCQQYSSYPLTFGQGTKLEIKR
notes: as for B1
For B4, the IC50 in test [1] was 18.8 nM.

B5: humanized anti-RAGE antibody h11E6.5 (antibody, V domains shown)
VH: EIQLVQSGSELKKPGASVKVSCKASGYTFTNFGMNWVRQAPGQGLEWMGYINTNTGESIYSEEFKGRFVFSLDTSVSTAYLQICSLKAEDTAVYFCARSRMVTAYGMDYWGQGTTVTVSS
VL: DIQMTQSPSSLSASVGDRVTITCKASQNVGTAVAWYQQKPGKAPKLLIYSASNRYTGVPSRFSGSGSGTDFTLTISSLQPEDFATYYCQQYSSYPLTFGQGTKLEIKR
notes: as for B1
Molecule B5 yielded an IC50 in test [1] of 16.1 nM.

B6: humanized anti-RAGE antibody h11E6.8 (antibody, V domains shown)
VH: EIQLVQSGSELKKPGASVKVSCKASGYTFTNFGMNWVRQAPGQGLEWMGYINTNTGESIYSEEFKGRFVFSLDTSVSTAYLQICSLKAEDTAVYFCARSRMVTAYGMDYWGQGTTVTVSS
VL: EIVMTQSPATLSLSPGERATLSCKASQNVGTAVAWYQQKPGQSPRLLIFSASNRYTGVPARFSGSGSGTDFTLTISSLQSEDFAVYFCQQYSSYPLTFGQGTKLEIKR
notes: as for B1
In test [2], B6 registered a Kd of 0.033 nM, a koff of 0.00084 s⁻¹ and a kon of 2.5e+07 M⁻¹ s⁻¹. In test [1], the IC50 was 10.8 nM.

B7: humanized anti-RAGE antibody h11E6.4 (antibody, V domains shown)
VH: EVQLVQSGSELKKPGASVKVSCKASGYTFTNFGMNWVRQAPGQGLEWMGYINTNTGESIYSEEFKGRFVFSLDTSVSTAYLQICSLKAEDTAVYYCARSRMVTAYGMDYWGQGTTVTVSS
VL: EIVMTQSPATLSLSPGERATLSCKASQNVGTAVAWYQQKPGQSPRLLIFSASNRYTGVPARFSGSGSGTDFTLTISSLQSEDFAVYFCQQYSSYPLTFGQGTKLEIKR
notes: as for B1
The molecule B7 yielded an IC50 in test [1] of 14.1 nM.

B8: humanized anti-RAGE antibody h11E6.7 (antibody, V domains shown)
VH: EIQLVQSGSELKKPGASVKVSCKASGYTFTNFGMNWVRQAPGQGLEWMGYINTNTGESIYSEEFKGRFVFSLDTSVSTAYLQICSLKAEDTAVYFCARSRMVTAYGMDYWGQGTTVTVSS
VL: EIVMTQSPATLSLSPGERATLSCKASQNVGTAVAWYQQKPGQAPRLLIYSASNRYTGIPARFSGSGSGTDFTLTISSLQSEDFAVYYCQQYSSYPLTFGQGTKLEIKR
notes: as for B1
For B8, in test [1], the IC50 worked out at 15.5 nM.

B9: humanized anti-RAGE antibody h11E6.11 (antibody, V domains shown)
VH: EVQLVQSGAEVKKPGASVKVSCKASGYTFTNFGMNWVRQAPGQGLEWMGYINTNTGESIYSEEFKGRVTMTRDTSTSTAYMELSSLRSEDTAVYYCARSRMVTAYGMDYWGQGTSVTVSS
VL: EIVMTQSPATLSLSPGERATLSCKASQNVGTAVAWYQQKPGQAPRLLIYSASNRYTGIPARFSGSGSGTDFTLTISSLQSEDFAVYYCQQYSSYPLTFGQGTKLEIKR
notes: as for B1
The molecule B9 came in with an IC50 in test [1] of 19.9 nM.

B10: humanized anti-RAGE antibody h11E6.15 (antibody, V domains shown)
VH: EIQLVQSGAEVKKPGASVKVSCKASGYTFTNFGMNWVRQAPGQGLEWMGYINTNTGESIYSEEFKGRFTFTLDTSTSTAYMELSSLRSEDTAVYFCARSRMVTAYGMDYWGQGTSVTVSS
VL: EIVMTQSPATLSLSPGERATLSCKASQNVGTAVAWYQQKPGQAPRLLIYSASNRYTGIPARFSGSGSGTDFTLTISSLQSEDFAVYYCQQYSSYPLTFGQGTKLEIKR
notes: as for B1
In turn, B10 showed an IC50 in test [1] of 14 nM.

B11: humanized anti-RAGE antibody h11E6.16 (antibody, V domains shown)
VH: EIQLVQSGAEVKKPGASVKVSCKASGYTFTNFGMNWVRQAPGQGLEWMGYINTNTGESIYSEEFKGRFTFTLDTSTSTAYMELSSLRSEDTAVYFCARSRMVTAYGMDYWGQGTSVTVSS
VL: EIVMTQSPATLSLSPGERATLSCKASQNVGTAVAWYQQKPGQSPRLLIFSASNRYTGVPARFSGSGSGTDFTLTISSLQSEDFAVYFCQQYSSYPLTFGQGTKLEIKR
notes: as for B1
In test [2], B11 yielded a Kd of 0.05 nM, a koff of 0.0014 s⁻¹ and a kon of 2.8e+07 M⁻¹ s⁻¹. Also, the IC50 in test [1] turned out to be 9.2 nM.

B12: humanized anti-RAGE antibody h11E6.12 (antibody, V domains shown)
VH: EVQLVQSGAEVKKPGASVKVSCKASGYTFTNFGMNWVRQAPGQGLEWMGYINTNTGESIYSEEFKGRVTMTRDTSTSTAYMELSSLRSEDTAVYYCARSRMVTAYGMDYWGQGTSVTVSS
VL: EIVMTQSPATLSLSPGERATLSCKASQNVGTAVAWYQQKPGQSPRLLIFSASNRYTGVPARFSGSGSGTDFTLTISSLQSEDFAVYFCQQYSSYPLTFGQGTKLEIKR
notes: as for B1
In test [2], B12 registered a Kd of 0.083 nM, a koff of 0.0017 s⁻¹ and a kon of 2e+07 M⁻¹ s⁻¹. This molecule also displayed an IC50 in test [1] of 11.3 nM.

B13: 7F9-recombinant (antibody, V domains shown)
VH: EEKLEESGGGLVQLGGSMKISCVASGFTLSNYWMDWVRQSPEKGLEWIAEIRLKSNYYSTHYAESVKGRFSISRDDSKGSVSLQMDNLTAEDTGIYFCARNAYWYFDVWGTGTTVTVSS
VL: DIVMTQSHKFMSTSVGDRVSATCKASQDVGTSVAWYQQKLGQSPKLLIYWTSTRHTGVPDRFTGSGSGTDFTLTISNVQSEDLADYFCQQYNNYPLTFGDGTKLELKR
notes: also called recombinant chimeric anti-human RAGE monoclonal antibody 7F9 (human IgG1/kappa)
Regarding B13, the EC50 in test [3] is 108 nM.
